# Reference: PMC6066219 (PLoS ONE, 2018)
# Marks after values point to notes of the source that are not given here. Starred links: 1 amine or outer side, 2 acyl side, 3 side chain; linkers in the order of their positions; H or OH if unused. Positions of bridges follow the written chain, without caps; N, C: chain ends. Non-standard residues stand in square brackets, D forms with d. Residues, ends and D or L forms follow the SMILES beside them. Chains are numbered I, II in the order given. *: point of attachment. X1 = CC1=CC(=O)N(O)CCCC(NC(=O)CCN2C(=O)CC([*:3])C2=O)C(=O)OCCC(C)=CC(=O)N(O)CCCC(NC(=O)CCN2C(=O)CC([*:2])C2=O)C(=O)OCCC(C)=CC(=O)N(O)CCCC(NC(=O)CCN2C(=O)CC([*:1])C2=O)C(=O)OCC1; X2 = CC(=O)NC1CCCN(O)C(=O)C=C(C)CCOC(=O)C(NC(=O)CCN2C(=O)CC([*:1])C2=O)CCCN(O)C(=O)C=C(C)CCOC(=O)C(NC(=O)CCN2C(=O)CC([*:2])C2=O)CCCN(O)C(=O)C=C(C)CCOC1=O; X3 = CC(=O)NC1CCCN(O)C(=O)C=C(C)CCOC(=O)C(NC(=O)CCN2C(=O)CC(*)C2=O)CCCN(O)C(=O)C=C(C)CCOC(=O)C(NC(C)=O)CCCN(O)C(=O)C=C(C)CCOC1=O; Nle = CCCC[C@H](N)C(=O)O; Mpa = O=C(O)CCS
# Tests used:
# [1] = tested on: A431-CCK2R/A431-mock tumour xenografted BALB/c nude mice; experiment: in vivo; conditions: mouse
# Description: (§1) Ex vivo biodistribution studies were conducted using female 8−10 weeks old athymic BALB/c nude mice (Charles River Laboratories, Sulzfeld, Germany). Tumour xenografts were induced by subcutaneous injection of 2 × 10^6 A431-CCK2R cells (receptor positive) in the right and 2 × 10^6 A431-mock cells (receptor negative) in the left flank and tumours were allowed to grow until they had reached a volume of 0.3–0.6 cm^3.To evaluate the biodistribution profile double tumour xenografted BALB/c nude mice (n = 3) were intravenously injected with 1–2 MBq of ^68Ga-labelled peptides (0.1–0.2 nmol). The animals were sacrificed by cervical dislocation after 1 h and 4 h in case of the trimer. The collected samples were measured in the gamma counter and the results were calculated as percentage of injected activity per gram tissue (% IA/g).
# in vivo = experiment: in vivo; set-up: species or system BALB/c nude mice; conditions: female, BALB/c nude, mouse, iv, total radioactivity
# Description: as §1
# [2] = format: physicochemical; conditions: for logD: pH 7.4
# Description: To determine the distribution of the ^68Ga-radiolabelled conjugates between an organic and aqueous layer aliquots (50 μL) of the tracers (10 μM) were diluted in 450 μL PBS and after adding 500 μL octanol the mixture was vortexed at 1400 rpm (MS 3 basic vortexer, IKA, Staufen, Germany) for 15 min at RT followed by centrifugation for 2 min at 4500 rpm. Subsequently, aliquots (100 μL) of both layers were collected and measured in the gamma counter (Wizard2 3”, Perkin Elmer, Waltham, MA, USA) followed by logD calculation using Excel (n = 3, six replicates).
# CCK2 receptor = target: T1, CCK2 receptor (Homo sapiens, UniProt P32239); experiment: Receptor binding affinity studies (IC50) on whole A431-CCK2R cells vs 125I-[Leu15]-gastrin I; conditions: natGa-labelled competitor, 125I-[Leu15]-Gastrin radioligand
# T1 construct: expressed in transfected cells; host or cells: A431 human epidermoid carcinoma cells (A431-CCK2R), gift from Dr. L. Aloj
# T1 sequence (P32239 1-447): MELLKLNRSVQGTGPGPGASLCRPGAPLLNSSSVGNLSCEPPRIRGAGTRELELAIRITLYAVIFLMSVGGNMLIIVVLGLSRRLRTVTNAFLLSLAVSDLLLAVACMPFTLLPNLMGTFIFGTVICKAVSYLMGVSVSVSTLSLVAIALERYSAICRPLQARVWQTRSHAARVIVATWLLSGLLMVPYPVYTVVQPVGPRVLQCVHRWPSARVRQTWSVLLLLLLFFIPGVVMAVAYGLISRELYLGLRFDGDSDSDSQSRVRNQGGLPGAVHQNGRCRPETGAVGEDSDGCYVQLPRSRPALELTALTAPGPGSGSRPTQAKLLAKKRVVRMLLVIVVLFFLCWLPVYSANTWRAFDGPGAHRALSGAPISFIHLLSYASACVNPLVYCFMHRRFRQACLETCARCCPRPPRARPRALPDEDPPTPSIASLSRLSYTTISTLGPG
# Description: Binding affinity studies on whole A431-CCK2R cells were performed as previously described. Briefly, 100 μL of cell suspension (5 × 10^6 cells/mL) was added to each well of a 96-well MultiScreen Filter Plate HTS (1 μm glass fiber filter, Merck Millipore, Darmstadt, Germany). Hereafter competitor solution was added with increasing concentrations [0.001−1.000 nM] and after 10 min at RT human [Leu^15]-gastrin I radiolabelled with iodine-125 as described in [16] was added (4.5 × 10^4 cpm) and the plate was maintained under shaking conditions (Compact shaker KS-15 control, 200/min) at ambient temperature. After 1 h each well was washed twice with 200 μL TRIS-buffered saline (pH 7.3), filters were collected and measured in the gamma counter followed by nonlinear curve fitting with Origin 6.1 software (Northampton, MA, USA) to calculate the IC50 values.
Structure (SMILES),Ratio T/O tumour-to-A431-mock [1],tissue uptake at 1 h (in vivo; A431-CCK2R tumour uptake) [%ID/g],tissue uptake at 1 h (in vivo; A431-mock tumour uptake) [%ID/g],tissue uptake at 1 h (in vivo; Blood uptake) [%ID/g],tissue uptake at 1 h (in vivo; Bone uptake) [%ID/g],tissue uptake at 1 h (in vivo; Heart uptake) [%ID/g],tissue uptake at 1 h (in vivo; Intestine uptake) [%ID/g],tissue uptake at 1 h (in vivo; Kidneys uptake) [%ID/g],tissue uptake at 1 h (in vivo; Liver uptake) [%ID/g],tissue uptake at 1 h (in vivo; Lung uptake) [%ID/g],tissue uptake at 1 h (in vivo; Muscle uptake) [%ID/g],tissue uptake at 1 h (in vivo; Pancreas uptake) [%ID/g],tissue to tissue ratio at 1 h (in vivo; Ratio T/O tumour-to-Blood),tissue to tissue ratio at 1 h (in vivo; Ratio T/O tumour-to-Bone),tissue to tissue ratio at 1 h (in vivo; Ratio T/O tumour-to-Heart),tissue to tissue ratio at 1 h (in vivo; Ratio T/O tumour-to-Intestine),tissue to tissue ratio at 1 h (in vivo; Ratio T/O tumour-to-Kidneys),tissue to tissue ratio at 1 h (in vivo; Ratio T/O tumour-to-Liver),tissue to tissue ratio at 1 h (in vivo; Ratio T/O tumour-to-Lung),tissue to tissue ratio at 1 h (in vivo; Ratio T/O tumour-to-Muscle),further results
CCCC[C@H](NC(=O)[C@H](Cc1c[nH]c2ccccc12)NC(=O)CNC(=O)[C@H](Cc1ccc(O)cc1)NC(=O)[C@H](C)NC(=O)[C@@H](CCC(=O)O)NC(=O)CCSC1CC(=O)N(CCC(=O)NC2CCCN(O)C(=O)C=C(C)CCOC(=O)C(NC(=O)CCN3C(=O)CC(SCCC(=O)N[C@H](CCC(=O)O)C(=O)N[C@@H](C)C(=O)N[C@@H](Cc4ccc(O)cc4)C(=O)NCC(=O)N[C@@H](Cc4c[nH]c5ccccc45)C(=O)N[C@@H](CCCC)C(=O)N[C@@H](CC(=O)O)C(=O)N[C@@H](Cc4ccccc4)C(N)=O)C3=O)CCCN(O)C(=O)C=C(C)CCOC(=O)C(NC(C)=O)CCCN(O)C(=O)C=C(C)CCOC2=O)C1=O)C(=O)N[C@@H](CC(=O)O)C(=O)N[C@@H](Cc1ccccc1)C(N)=O (stereo partly drawn) [Dimer-Nle] (I: [Mpa][dE]AYGW[Nle]DF-NH2 / II: [Mpa][dE]AYGW[Nle]DF-NH2; linker I:1-II:1 via X2),8.0 ± 1.8^c,5 ± 0.79,0.65 ± 0.14,1.4 ± 0.48,0.8 ± 0.37,0.62 ± 0.12,0.64 ± 0.12,12.8 ± 0.16,3.49 ± 0.94,1.54 ± 0.33,0.36 ± 0.12,0.98 ± 0.28,4 ± 1.3,7.6 ± 3.2,8.2 ± 1.2,8.1 ± 1.8,0.39 ± 0.06,1.5 ± 0.4,3.3 ± 0.5,15.8 ± 5.8,tissue to tissue ratio at 1 h (in vivo; Ratio T/O tumour-to-Pancreas): 5.4 ± 1.3; tissue to tissue ratio at 1 h (in vivo; Ratio T/O tumour-to-Spleen): 5.2 ± 0.5; tissue to tissue ratio at 1 h (in vivo; Ratio T/O tumour-to-Stomach): 2.2 ± 0.3; tissue uptake at 1 h (in vivo; Spleen uptake): 0.95 ± 0.07 %ID/g; tissue uptake at 1 h (in vivo; Stomach uptake): 2.25 ± 0.17 %ID/g; logD [2]: -2.05 ± 0.19
CCCC[C@H](NC(=O)[C@H](Cc1c[nH]c2ccccc12)NC(=O)CNC(=O)[C@H](Cc1ccc(O)cc1)NC(=O)[C@H](C)NC(=O)[C@@H](CCC(=O)O)NC(=O)CCSC1CC(=O)N(CCC(=O)NC2CCCN(O)C(=O)C=C(C)CCOC(=O)C(NC(C)=O)CCCN(O)C(=O)C=C(C)CCOC(=O)C(NC(C)=O)CCCN(O)C(=O)C=C(C)CCOC2=O)C1=O)C(=O)N[C@@H](CC(=O)O)C(=O)N[C@@H](Cc1ccccc1)C(N)=O (stereo partly drawn) [Monomer-Nle] ([Mpa](X3)[dE]AYGW[Nle]DF-NH2),9.8 ± 2.2^b,1.97 ± 0.25,0.22 ± 0.07,0.25 ± 0.07,0.3 ± 0.12,0.12 ± 0.03,0.36 ± 0.12,2.72 ± 0.29,0.17 ± 0.01,0.25 ± 0.03,0.1 ± 0.02,0.24 ± 0.02,9 ± 3.6,7.9 ± 3.1,17.6 ± 5.2,6.6 ± 3.6,0.75 ± 0.18,11.5 ± 2,8.1 ± 2.1,22.1 ± 6,tissue to tissue ratio at 1 h (in vivo; Ratio T/O tumour-to-Pancreas): 8.4 ± 1.6; tissue to tissue ratio at 1 h (in vivo; Ratio T/O tumour-to-Spleen): 19.8 ± 4; tissue to tissue ratio at 1 h (in vivo; Ratio T/O tumour-to-Stomach): 3.1 ± 0.9; tissue uptake at 1 h (in vivo; Spleen uptake): 0.1 ± 0.03 %ID/g; tissue uptake at 1 h (in vivo; Stomach uptake): 0.66 ± 0.11 %ID/g; logD [2]: -2.69 ± 0.14
CCCC[C@H](NC(=O)[C@H](Cc1c[nH]c2ccccc12)NC(=O)CNC(=O)[C@H](Cc1ccc(O)cc1)NC(=O)[C@H](C)NC(=O)[C@@H](CCC(=O)O)NC(=O)CCSC1CC(=O)N(CCC(=O)NC2CCCN(O)C(=O)C=C(C)CCOC(=O)C(NC(=O)CCN3C(=O)CC(SCCC(=O)N[C@H](CCC(=O)O)C(=O)N[C@@H](C)C(=O)N[C@@H](Cc4ccc(O)cc4)C(=O)NCC(=O)N[C@@H](Cc4c[nH]c5ccccc45)C(=O)N[C@@H](CCCC)C(=O)N[C@@H](CC(=O)O)C(=O)N[C@@H](Cc4ccccc4)C(N)=O)C3=O)CCCN(O)C(=O)C=C(C)CCOC(=O)C(NC(=O)CCN3C(=O)CC(SCCC(=O)N[C@H](CCC(=O)O)C(=O)N[C@@H](C)C(=O)N[C@@H](Cc4ccc(O)cc4)C(=O)NCC(=O)N[C@@H](Cc4c[nH]c5ccccc45)C(=O)N[C@@H](CCCC)C(=O)N[C@@H](CC(=O)O)C(=O)N[C@@H](Cc4ccccc4)C(N)=O)C3=O)CCCN(O)C(=O)C=C(C)CCOC2=O)C1=O)C(=O)N[C@@H](CC(=O)O)C(=O)N[C@@H](Cc1ccccc1)C(N)=O (stereo partly drawn) [Trimer-Nle] (I: [Mpa][dE]AYGW[Nle]DF-NH2 / II: [Mpa][dE]AYGW[Nle]DF-NH2 / III: [Mpa][dE]AYGW[Nle]DF-NH2; linker I:1-II:1-III:1 via X1),–,–,–,–,–,–,–,–,–,–,–,–,–,–,–,–,–,–,–,–,IC50 (CCK2 receptor): 20.9 ± 1.13 nM; Distribution coefficient logD (pH 7.4) [2]: -1.80 ± 0.16
